The values below come from US20120058906A1 (published 2012).

Test [1] addresses T1, rHuman IGF-1 sR (IGF-1 sR), CF (R&D Systems Cat#391-GR) (human, UniProt P08069 31-932).
T1 construct: Bought soluble receptor; also called insulin-like growth factor-1 soluble receptor; IGF-R1
In words: MSD ECL multi-spot assay, antigen spotted on plate, Fab 0.03 uM; blank spot 373.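 Also: blank spot per well as comparator with Hit at signal to blank ratio of 4 or more.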

For test [2], the target named is T2, rHuman HGF R/c-MET/Fc Chimera, CF (R&D Systems Cat#358-MT/CF) (human, UniProt P08581 25-932).
T2 construct: Bought protein; also called HGF R/Fc; hepatocyte growth factor receptor; Fc part of the bought chimera not given
The description is as above.

The target of test [3] is T3, rHuman EGF R/Fc Chimera, CF (R&D Systems Cat#344-ER) (human, UniProt P00533 25-645).
T3 construct: Bought protein; also called epidermal growth factor receptor; Fc part of the bought chimera not given
The test is described as above.

The target of test [4] is T4, rHuman ErbB2/Fc Chimera, CF (R&D Systems Cat#1129-ER) (human, UniProt P04626 23-652).
T4 construct: Bought protein; also called HER2/neu; human epidermal growth factor 2 receptor; Fc part of the bought chimera not given
Described as above.

Test [5] addresses T5, rHuman P-Cadherin/Fc Chimera, CF (R&D Systems Cat#861-PC) (human, UniProt P22223 108-654).
T5 construct: Bought protein; also called CDH3; Fc part of the bought chimera not given
Described as above.

In test [6] the target is T6, rHuman Notch-1/Fc Chimera, CF (R&D Systems Cat#3647-TK) (human, UniProt P46531 19-526).
T6 construct: Bought protein; Fc part of the bought chimera not given
The description is as above.

Test [7] concerns the target T7, Recombinant Human DLL4 (R&D Systems Cat#1506-D4/CF) (human, UniProt Q9NR61 27-524).
T7 construct: Bought protein; also called delta-like protein 4; rHuman DLL4
The test is described as above.

Test [8] deals with T8, rHuman CD44/Fc Chimera, CF (R&D Systems Cat#3660-CD) (human, UniProt P16070 21-220).
T8 construct: Bought protein; Fc part of the bought chimera not given
The test is described as above.

The target in test [9] is T9, rHuman Erythropoietin R/Fc Chimera, CF (R&D Systems Cat#963-ER) (human, UniProt P19235 25-250).
T9 construct: Bought protein; also called EPOR; EPO R/Fc; Fc part of the bought chimera not given
T9 sequence: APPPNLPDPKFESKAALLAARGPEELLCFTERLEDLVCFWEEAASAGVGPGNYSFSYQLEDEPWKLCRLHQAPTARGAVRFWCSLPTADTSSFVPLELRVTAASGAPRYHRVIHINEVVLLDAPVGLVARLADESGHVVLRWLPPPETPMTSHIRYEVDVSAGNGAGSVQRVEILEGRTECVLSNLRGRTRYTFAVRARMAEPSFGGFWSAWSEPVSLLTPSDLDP
The test is described as above.

For test [10], the target named is T1, rHuman IGF-1 sR (IGF-1 sR), CF (R&D …). In words: MSD ECL multi-spot assay, antigen spotted on plate, Fab 0.25 uM; blank spot 3693.
The target of test [11] is T3, rHuman EGF R/Fc Chimera, CF (R&D …). The description is as above.
The target of test [12] is T5, rHuman P-Cadherin/Fc Chimera, CF (R&D …). The test is described as above.
The target in test [13] is T7, Recombinant Human DLL4 (R&D Systems …). The description is as above.
The target of test [14] is T9, rHuman Erythropoietin R/Fc Chimera, CF …. The test is described as above.
Test [15] addresses T1, rHuman IGF-1 sR (IGF-1 sR), CF (R&D …). In words: MSD ECL multi-spot assay, antigen spotted on plate, Fab 0.65 uM; blank spot 441.
Test [16] addresses T2, rHuman HGF R/c-MET/Fc Chimera, CF (R&D …). Described as above.
The target in test [17] is T3, rHuman EGF R/Fc Chimera, CF (R&D …). The test is described as above.
Test [18] addresses T4, rHuman ErbB2/Fc Chimera, CF (R&D …). The description is as above.
The target in test [19] is T5, rHuman P-Cadherin/Fc Chimera, CF (R&D …). The description is as above.
The target in test [20] is T7, Recombinant Human DLL4 (R&D Systems …). The description is as above.
Test [21] concerns the target T8, rHuman CD44/Fc Chimera, CF (R&D Systems …). The description is as above.
The target in test [22] is T1, rHuman IGF-1 sR (IGF-1 sR), CF (R&D …). In words: MSD ECL multi-spot assay, antigen spotted on plate, Fab 0.36 uM; blank spot 928.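 Also: blank spot per well as comparator with Hit at signal to blank ratio of 4 or more.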
Test [23] deals with T2, rHuman HGF R/c-MET/Fc Chimera, CF (R&D …). The description is as above.
Test [24] addresses T3, rHuman EGF R/Fc Chimera, CF (R&D …). The test is described as above.
Test [25] deals with T4, rHuman ErbB2/Fc Chimera, CF (R&D …). The description is as above.
The target of test [26] is T5, rHuman P-Cadherin/Fc Chimera, CF (R&D …). The description is as above.
The target in test [27] is T6, rHuman Notch-1/Fc Chimera, CF (R&D …). The description is as above.
Test [28] has as its target T7, Recombinant Human DLL4 (R&D Systems …). The test is described as above.
Test [29] deals with T8, rHuman CD44/Fc Chimera, CF (R&D Systems …). Described as above.
For test [30], the target named is T9, rHuman Erythropoietin R/Fc Chimera, CF …. The description is as above.

B1: Fab VH2-5_IGHD7-27*01_IGHJ2*01 & L2_IGKJ1*01 (Fab, V domains shown)
VH: QITLKESGPTLVKPTQTLTLTCTFSGFSLSTSGVGVGWIRQPPGKALEWLALIYWNDDKRYSPSLKSRLTITKDTSKNQVVLTMTNMDPVDTATYYCAHRPNWGYWYFDLWGRGTLVTVSS
VL: not shown
With B1, the ECL signal amounted to 344 in test [1]; 311 in test [2]; 381 in test [3]; 2560 in test [4]; 352 in test [5]; 563 in test [6]. The ECL signal was determined as 476 in test [7], 421 in [8] and 492 in test [9].

B2: Fab VH1-46_IGHD2-15*01_IGHJ2*01 & L2_IGKJ1*01 (Fab, V domains shown)
VH: QVQLVQSGAEVKKPGASVKVSCKASGYTFTSYYMHWVRQAPGQGLEWMGIINPSGGSTSYAQKFQGRVTMTRDTSTSTVYMELSSLRSEDTAVYYCAREGYCSGGSCYSYWYFDLWGRGTLVTVSS
VL: not shown
On to B2, for which the ECL signal was 4930 in test [10]; 88000 in [11]; 16100 in [12]; 14700 in test [13]; 30100 in [14].

B3: Fab VH1-69_IGHD1-1*01_IGHJ6*01 & A17_IGKJ1*01 (Fab, V domains shown)
VH: QVQLVQSGAEVKKPGSSVKVSCKASGGTFSSYAISWVRQAPGQGLEWMGGIIPIFGTANYAQKFQGRVTITADKSTSTAYMELSSLRSEDTAVYYCARGYNWNDDYYYYYGMDVWGQGTTVTVSS
VL: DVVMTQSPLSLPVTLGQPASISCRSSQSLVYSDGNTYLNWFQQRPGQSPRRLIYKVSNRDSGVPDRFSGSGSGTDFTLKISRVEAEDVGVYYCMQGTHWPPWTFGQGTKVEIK
notes: Fab from E. coli; VH joined to the CH1 (Flag and His tags) of Plasmid A, VL to the kappa CL of Plasmid C
As for B3, the ECL signal was determined as 656 in [15]; 437 in test [16]; 662 in [17]; 2940 in [18]; 695 in test [19]; 849 in test [20]. The ECL signal in [21] came to 797.

B4: Fab VH1-46_IGHD7-27*01_IGHJ2*01 & A27_IGKJ1*01 (Fab, V domains shown)
VH: QVQLVQSGAEVKKPGASVKVSCKASGYTFTSYYMHWVRQAPGQGLEWMGIINPSGGSTSYAQKFQGRVTMTRDTSTSTVYMELSSLRSEDTAVYYCARANWGYWYFDLWGRGTLVTVSS
VL: not shown
notes: as for B3
Take B4: the ECL signal in test [22] was 1080; in test [23] it was 1220; in test [24], 1400; in test [25] it was 1470; in test [26], 1800; in [27] it was 1920. The values for the ECL signal in test [28], in [29] and in [30] were 9080, 1540 and 2430, respectively.
